# From patent publication US20210309732A1 (ELIXIRON IMMUNOTHERAPEUTICS HONG KONG, published 2021)
# Positions count from the first letter of the chain named. Names and notes keep the numbering of the source.
# B1: 1D2 SDR mutant HD31A (antibody, IgG1, V domains shown)
# VH: QVQLVQSGAEVKKPGASVKVSCEASGYTFTAKYLHWVRQAPGQGLEWMAWINPKSGGTFYAQNFKGRVTVTRDTSINTAYLELTSLRLDDTSTYYCARGRDYYDQGAADLWGQGTMVTVSS
# VL: DIQLTQSPSSLSASVGDRVTITCRASQGINSVLAWYQQKPGKAPKLLLYAASKLESGVPSRFSGSGSGTDYTLTISSLQPEDFGTYYCQQYYSPVRTFGQGTKVEIKR
# notes: also called X1 A
# B2: 1D2 SDR mutant HK32C (antibody, IgG1, V domains shown)
# VH: B1 VH with A31D, K32C
# VL: B1 VL
# notes: also called X2 C
# B3: 1D2 SDR mutant HK54F (antibody, IgG1, V domains shown)
# VH: B1 VH with A31D, K54F
# VL: B1 VL
# notes: also called X3 F
# B4: 1D2 SDR mutant HD31L (antibody, IgG1, V domains shown)
# VH: B1 VH with A31L
# VL: B1 VL
# notes: also called X1 L
# B5: 1D2 SDR mutant HK54I (antibody, IgG1, V domains shown)
# VH: B1 VH with A31D, K54I
# VL: B1 VL
# notes: also called X3 I
# B6: 1D2 SDR mutant HK54H (antibody, IgG1, V domains shown)
# VH: B1 VH with A31D, K54H
# VL: B1 VL
# notes: also called X3 H
# B7: 1D2 SDR mutant HK32S (antibody, IgG1, V domains shown)
# VH: B1 VH with A31D, K32S
# VL: B1 VL
# notes: also called X2 S
# B8: 1D2 SDR mutant HK54C (antibody, IgG1, V domains shown)
# VH: B1 VH with A31D, K54C
# VL: B1 VL
# notes: also called X3 C
# B9: 1D2 SDR mutant HD31N (antibody, IgG1, V domains shown)
# VH: B1 VH with A31N
# VL: B1 VL
# notes: also called X1 N
# B10: 1D2 SDR mutant HK32V (antibody, IgG1, V domains shown)
# VH: B1 VH with A31D, K32V
# VL: B1 VL
# notes: also called X2 V
# B11: 1D2 SDR mutant HK54A (antibody, IgG1, V domains shown)
# VH: B1 VH with A31D, K54A
# VL: B1 VL
# notes: also called X3 A
# B12: 1D2 SDR mutant HD31P (antibody, IgG1, V domains shown)
# VH: B1 VH with A31P
# VL: B1 VL
# notes: also called X1 P
# B13: 1D2 SDR mutant HK32P (antibody, IgG1, V domains shown)
# VH: B1 VH with A31D, K32P
# VL: B1 VL
# notes: also called X2 P
# B14: 1D2 SDR mutant HD31Q (antibody, IgG1, V domains shown)
# VH: B1 VH with A31Q
# VL: B1 VL
# notes: also called X1 Q
# B15: 1D2 SDR mutant HD31T (antibody, IgG1, V domains shown)
# VH: B1 VH with A31T
# VL: B1 VL
# notes: also called X1 T
# B16: 1D2 SDR mutant HK54E (antibody, IgG1, V domains shown)
# VH: B1 VH with A31D, K54E
# VL: B1 VL
# notes: also called X3 E
# B17: 1D2 SDR mutant HK32R (antibody, V domains shown)
# VH: B1 VH with A31D, K32R
# VL: B1 VL
# notes: not the clone labelled 32R, which is light chain V32R; also called X2 R
# B18: 1D2 SDR mutant HK32D (antibody, IgG1, V domains shown)
# VH: B1 VH with A31D, K32D
# VL: B1 VL
# notes: also called X2 D
# B19: 1D2 SDR mutant HK32T (antibody, IgG1, V domains shown)
# VH: B1 VH with A31D, K32T
# VL: B1 VL
# notes: also called X2 T
# B20: 1D2 SDR mutant HD31S (antibody, IgG1, V domains shown)
# VH: B1 VH with A31S
# VL: B1 VL
# notes: also called X1 S
# B21: 1D2 SDR mutant HK32E (antibody, IgG1, V domains shown)
# VH: B1 VH with A31D, K32E
# VL: B1 VL
# notes: also called X2 E
# B22: 1D2 SDR mutant HK32F (antibody, IgG1, V domains shown)
# VH: B1 VH with A31D, K32F
# VL: B1 VL
# notes: also called X2 F
# B23: 1D2 SDR mutant HK32Q (antibody, IgG1, V domains shown)
# VH: B1 VH with A31D, K32Q
# VL: B1 VL
# notes: also called X2 Q
# B24: 1D2 SDR mutant HK32H (antibody, IgG1, V domains shown)
# VH: B1 VH with A31D, K32H
# VL: B1 VL
# notes: also called X2 H
# B25: 1D2 SDR mutant HD31R (antibody, IgG1, V domains shown)
# VH: B1 VH with A31R
# VL: B1 VL
# notes: also called X1 R
# B26: 1D2 SDR mutant HD31E (antibody, IgG1, V domains shown)
# VH: B1 VH with A31E
# VL: B1 VL
# notes: also called X1 E
# B27: 1D2 SDR mutant HD31V (antibody, IgG1, V domains shown)
# VH: B1 VH with A31V
# VL: B1 VL
# notes: also called X1 V
# B28: 1D2 SDR mutant HK32A (antibody, IgG1, V domains shown)
# VH: B1 VH with A31D, K32A
# VL: B1 VL
# notes: also called X2 A
# B29: 1D2 SDR mutant HK32N (antibody, IgG1, V domains shown)
# VH: B1 VH with A31D, K32N
# VL: B1 VL
# notes: also called X2 N
# B30: 1D2 SDR mutant HK32L (antibody, IgG1, V domains shown)
# VH: B1 VH with A31D, K32L
# VL: B1 VL
# notes: also called X2 L
# B31: 1D2 SDR mutant HD31C (antibody, IgG1, V domains shown)
# VH: B1 VH with A31C
# VL: B1 VL
# notes: also called X1 C
# B32: 1D2 SDR mutant HD31G (antibody, IgG1, V domains shown)
# VH: B1 VH with A31G
# VL: B1 VL
# notes: also called X1 G
# B33: 1D2 SDR mutant HD31W (antibody, IgG1, V domains shown)
# VH: B1 VH with A31W
# VL: B1 VL
# notes: also called X1 W
# Target: T1, recombinant human GM-CSF (human, UniProt P04141 18-144)
# T1 construct: also called rhGM-CSF; CSF2
# Assay: ELISA on coated rhGM-CSF, UBA relative to 1D2
# Excerpt: Some of the residues in the CDRs are essential for epitope binding affinity and/or specificity. A number of computational methods were developed to detect these functional residues, generally known as ‘specificity-determining resides’ (SDRs). […] Based on the analysis, 7 amino acid residues in VH and 3 amino acid residues in VL were selected as the SDRs. The residues are labeled X₁ to X₁₀ for the ease of reference. The SDRs on VH are: Heavy chain D31 (HD31) (X₁), HK32 (X₂), HK54(X₃), HR100 (X₄), HY102 (X₅), HY103 (X₆) and HQ105 (X₇). The SDRs on VL are Light chain V32 (LV32) (X₈), LP94 (X₉) and LV95 (X₁₀). The SDRs were subsequently mutated by site-directed mutagenesis to other amino acids to generate mutant VH or VL clones. HEK293 cells were co-transfected with a vector encoding a mutant VH paired with a vector encoding a wild type VL or a vector encoding a wild type VH paired with a vector encoding a mutant VL. The antibody clones were harvested from the culture medium. The binding affinity of each antibody clone to human GM-CSF was tested by ELISA. The ELISA was done according to the following procedures. ELISA plate was coated with 50 μl of rhGM-CSF at 1 μg/mL. The plate was washed with 200 μl PBST for three times, followed by blocking with 1% BSA for 1 hour at room temperature. The antibody clones to be tested were diluted at 1:12000. 100 μl of the diluted antibodies were added to the cell at 100 μl/well. The plate was incubated at room temperature for 1 hour. The plate was then washed and incubated with 1:5000 diluted goat-anti-human secondary antibody conjugated with HRP at room temperature for one hour. The ELISA assay was developed with 100 μl developing buffer containing H₂O₂-Amplx Red per well in the dark for 5 min and the fluorescence intensity was read at Ex.530/Em.590 nm, with cutoff at 570 nm. The Unit Binding Activity (UBA) of each sample was calculated as the fluorescence signal/antibody clone dilution factor.
# T1 sequence (P04141 18-144 limits assumed): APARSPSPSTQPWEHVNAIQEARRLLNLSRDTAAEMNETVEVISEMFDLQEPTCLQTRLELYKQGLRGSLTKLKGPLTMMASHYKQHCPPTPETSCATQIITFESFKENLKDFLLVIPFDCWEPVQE
row,Binder,binding affinity % of 1D2 [%]
1,B1,66
2,B2,86
3,B3,67
4,B4,57
5,B5,100
6,B6,74
7,B7,78
8,B8,76
9,B9,74
10,B10,90
11,B11,117
12,B12,69
13,B13,88
14,B14,74
15,B15,44
16,B16,113
17,B17,90

row,Binder,binding affinity % of 1D2 [%]
1,B18,90
2,B19,74
3,B20,47
4,B21,94
5,B22,63
6,B23,91
7,B24,76
8,B25,73
9,B26,63
10,B27,71
11,B28,61
12,B29,97
13,B30,60
14,B31,79
15,B32,58
16,B33,72
